Laboratory results published in patent publication US20030022827A1.

Key:
IL-10R1 (human) = IL-10R1 (human) (UniProt Q13651); assay: cell-based or functional assay
[1] = target: IL-10R subtype I, which consists of an IL-10R1 and an IL-10R2 (human) (UniProt Q13651); assay: cell-based or functional assay
IL-10R subtype I, which consists of an IL-10R1 and an IL-10R2 (human), sequence (Q13651 22-578, chain 1 of 2): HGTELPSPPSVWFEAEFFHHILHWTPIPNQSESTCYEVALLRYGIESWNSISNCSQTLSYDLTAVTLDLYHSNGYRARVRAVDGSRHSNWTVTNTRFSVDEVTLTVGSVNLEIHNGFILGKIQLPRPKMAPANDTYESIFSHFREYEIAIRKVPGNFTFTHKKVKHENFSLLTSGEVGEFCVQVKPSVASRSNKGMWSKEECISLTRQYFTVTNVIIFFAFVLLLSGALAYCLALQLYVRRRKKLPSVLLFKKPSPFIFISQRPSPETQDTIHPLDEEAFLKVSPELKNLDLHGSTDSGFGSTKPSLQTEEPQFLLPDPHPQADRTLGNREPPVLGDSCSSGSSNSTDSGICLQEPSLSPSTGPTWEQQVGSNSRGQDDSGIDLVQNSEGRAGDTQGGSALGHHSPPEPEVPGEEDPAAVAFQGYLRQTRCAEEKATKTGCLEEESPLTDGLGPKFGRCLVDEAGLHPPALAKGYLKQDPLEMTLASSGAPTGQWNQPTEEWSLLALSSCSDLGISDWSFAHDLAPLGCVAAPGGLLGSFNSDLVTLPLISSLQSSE
IL-10R subtype I, which consists of an IL-10R1 and an IL-10R2 (human), sequence (Q08334 20-325, chain 2 of 2, further chain): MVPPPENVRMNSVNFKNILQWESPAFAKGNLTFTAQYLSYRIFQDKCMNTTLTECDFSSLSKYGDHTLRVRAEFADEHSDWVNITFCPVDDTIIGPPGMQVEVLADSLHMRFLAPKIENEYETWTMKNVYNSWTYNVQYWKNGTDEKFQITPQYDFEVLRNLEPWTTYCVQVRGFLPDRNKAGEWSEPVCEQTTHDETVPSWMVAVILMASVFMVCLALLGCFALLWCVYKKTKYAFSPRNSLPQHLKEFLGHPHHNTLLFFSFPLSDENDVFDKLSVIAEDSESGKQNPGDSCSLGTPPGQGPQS

IL-10R1 (human), sequence (Q13651 22-578): as the sequence (Q13651 22-578, chain 1 of 2) above

Question: What does the source list for “Epstein-Barr virus-coded protein BCRF1 (from UniProt P03180 24-170) (ligand)”?
Answer: inhibition of LPS-induced TNF-α release of PBMC (ELISA of supernatant) (IL-10R1 (human)): 3 ng/mL; expression of the low-affine IgG receptor CD16 on monocytes (flow cytometry) [1]: 30 to 100 ng/mL
